The target of experiment [1] is Actin, purified (rabbit skeletal muscle; Cytoskeleton, Inc.) (rabbit) (UniProt P68135). Put plainly: co-sedimentation.
For experiment [2], the target named is Actin mutant that cannot polymerize (G-actin mimetic; Joel et al., 2004). Put plainly: SPR. (SPR reads the build-up and loss of mass on a sensor chip optically.)
Experiment [3] has as its target Actin, purified (rabbit skeletal muscle; Cytoskeleton, Inc.) (rabbit) (UniProt P68135). As to the kind of experiment: SPR.
For experiment [4] the target is unchanged. As to the kind of experiment: ELISA. On the technique in general: ELISA stands for enzyme-linked immunosorbent assay.
Experiment [5] has as its target GST-fused full-length kindlin-2 LK47/AA mutant (GST-K2LK47/AA) (human) (UniProt Q96AC1). As to the kind of experiment: pull-down.

Where “and” joins values, the source holds several entries; their conditions need not be identical. Identical values can stand only once.

α-actinin (natural protein) yielded a percent of the added protein in the actin pellet in experiment [1] of 52%. As for “GST-fused full-length kindlin-2 (GST-K2) (from UniProt Q96AC1 1-680) (natural protein)”, the Kd is 124 nM in experiment [2]; 136 nM and 190 nM in experiment [3].

With “GST-fused full-length kindlin-2 LK47/AA mutant (GST-K2LK47/AA) (from UniProt Q96AC1 1-680) (natural protein)”, the Kd in experiment [3] is 982 nM and 1580 nM. In addition, the fold difference of the relative Kd against WT K2 in experiment [4] was 3 fold and 5 fold. For “Actin, purified (rabbit skeletal muscle; Cytoskeleton, Inc.) (from UniProt P68135 1-377) (natural protein)”, the mean percent less actin pulled down than by WT K2 in experiment [5] came out at 75%. For the substance “Full-length kindlin-2 (K2), GST tag removed by Factor Xa (from UniProt Q96AC1 1-680) (natural protein)”, the percent of the added protein in the actin pellet in experiment [1] is 36% and 30% to 54% (2×).

Broadly, the Kd is a measure of binding affinity in units of concentration.

These data come from paper PMC4828686.
